Laboratory results published in paper PMC5511251, “The A2V mutation as a new tool for hindering Aβ aggregation: A neutron and x-ray diffraction study” (Scientific Reports, 2017).

Target: T1, Aβ1-28 wild type (human)
T1 construct: amyloid-β (Aβ) residues 1-28, cut from the amyloid β precursor protein (APP); numbers count on: the Aβ peptide (position 2 of Aβ is position 673 of APP); Assembles into fibrils; also called Aβ1-28WT; WT; source: synthetic peptide (Fmoc solid-phase synthesis, purified by reverse-phase HPLC, purity >95%)
Assay: neutron diffraction + other: synchrotron X-ray fibre diffraction; peptides or their mixtures dissolved in ddH2O at 10 mg/mL, dried four days at ambient temperature on quartz in a 7 T static magnetic field, re-humidified against 100% D2O for about 14 days; small- and wide-angle patterns
Settings: both partners purified

binding result: binds
B1: Aβ1-28A2V (peptide)
peptide: DVEFRHDSGYEVHHQKLVFFAEDVGSNK
notes: amyloid-β (Aβ) residues 1-28 with the naturally occurring A-to-V substitution at position 2 of Aβ (A673V in APP); numbers count on: the Aβ peptide (position 2 of Aβ is position 673 of APP); also called mutated peptide Aβ1-28A2V; source: synthetic peptide (Fmoc solid-phase synthesis, purified by reverse-phase HPLC, purity >95%)
